Target: human βNGF (R&D Systems, Inc.) (human) (UniProt P01138)
Test: dynamic light scattering of antibody incubated with human βNGF

Sequence of human βNGF (R&D Systems, Inc.) (human) (P01138 122-241 limits assumed): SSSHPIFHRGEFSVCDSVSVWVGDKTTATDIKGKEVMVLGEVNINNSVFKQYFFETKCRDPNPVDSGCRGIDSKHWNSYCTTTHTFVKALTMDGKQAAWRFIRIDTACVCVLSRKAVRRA

Control IgG (antibody)
Particle size Average (d · nm), IgG + rhNGF: 12.6 nm·days
Particle size Peak (d · nm), IgG + rhNGF: 11.7 nm·days
